The results in this text go back to the supplement of paper PMC9112550, “Optimization of the antimicrobial peptide Bac7 by deep mutational scanning” (BMC Biology, 2022).
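Note: peptides expressed intracellularly from a pBAD plasmid library in pooled LB shake-flask culture, induced with 0.3% L-arabinose, DNA abundance read by NGS, three biological replicates, DESeq2 with apeglm shrinkage.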

This data set has as its system Escherichia coli TOP10. As to the kind of experiment: shrunken log2 fold change of peptide-encoding DNA abundance (4.5 h post-induction vs induction); higher = less antimicrobial activity (less host growth inhibition). The note with it: time post-induction: 4.5 h; library: site-saturation at positions 5, 18, 19, 20.
With RRIRGRPPRLPRPRPRPDTCPRP, the “shrunken log2 fold change” value came to 0.131.

In the case of RRIRERPPRLPRPRPRPYQRPRP, the “shrunken log2 fold change” value was -0.876.

With RRIRNRPPRLPRPRPRPGRMPRP, the “shrunken log2 fold change” value worked out at 0.0895.

For the sequence RRIRLRPPRLPRPRPRPFHFPRP, the “shrunken log2 fold change” value was -0.58.

As to RRIRQRPPRLPRPRPRPGCWPRP, the “shrunken log2 fold change” value amounted to 0.548.

Regarding RRIRRRPPRLPRPRPRPPKCPRP, the “shrunken log2 fold change” value came to 0.423.

Consider RRIRGRPPRLPRPRPRPHKQPRP, for which the “shrunken log2 fold change” value was determined as 0.0331.

For RRIRGRPPRLPRPRPRPCEVPRP, the “shrunken log2 fold change” value stood at 0.0371.

As to RRIRIRPPRLPRPRPRPKCQPRP, the “shrunken log2 fold change” value is -0.00871.

Regarding RRIRIRPPRLPRPRPRPADFPRP, the “shrunken log2 fold change” value is -0.162.

For RRIRVRPPRLPRPRPRPDCPPRP, the “shrunken log2 fold change” value was -0.104.

Take RRIRPRPPRLPRPRPRPHKEPRP: the “shrunken log2 fold change” value was 0.163.

Regarding RRIRKRPPRLPRPRPRPCMPPRP, the “shrunken log2 fold change” value came to 0.0752.

For RRIRKRPPRLPRPRPRPCKPPRP, the “shrunken log2 fold change” value was -0.00919.

As for RRIRNRPPRLPRPRPRPMTAPRP, the “shrunken log2 fold change” value was -0.167.

With RRIRTRPPRLPRPRPRPTVKPRP, the “shrunken log2 fold change” value worked out at 3.07.

As to RRIRKRPPRLPRPRPRPCNPPRP, the “shrunken log2 fold change” value is -0.00652.

As for RRIRNRPPRLPRPRPRPCWYPRP, the “shrunken log2 fold change” value is -0.0865.

As to RRIRNRPPRLPRPRPRPSNIPRP, the “shrunken log2 fold change” value is -0.28.

Turning to RRIRTRPPRLPRPRPRPRVPPRP, the “shrunken log2 fold change” value was 0.105.

As for RRIRPRPPRLPRPRPRPPLSPRP, the “shrunken log2 fold change” value is 0.161.

Regarding RRIRVRPPRLPRPRPRPMFKPRP, the “shrunken log2 fold change” value was -0.24.

RRIRMRPPRLPRPRPRPGASPRP: the “shrunken log2 fold change” value worked out at 0.854.

With RRIRERPPRLPRPRPRPQFQPRP, the “shrunken log2 fold change” value is -0.0426.

Consider RRIRYRPPRLPRPRPRPWAIPRP, for which the “shrunken log2 fold change” value amounted to 0.0155.

As to RRIRPRPPRLPRPRPRPSYAPRP, the “shrunken log2 fold change” value is -0.106.

Turning to RRIRARPPRLPRPRPRPPMYPRP, the “shrunken log2 fold change” value is -0.147.

As to RRIRYRPPRLPRPRPRPLYQPRP, the “shrunken log2 fold change” value is -0.13.

Take RRIRARPPRLPRPRPRPWFYPRP: the “shrunken log2 fold change” value is 0.0676.

RRIRERPPRLPRPRPRPWRGPRP: the “shrunken log2 fold change” value worked out at 0.166.

Consider RRIRLRPPRLPRPRPRPTDGPRP, for which the “shrunken log2 fold change” value was -0.0875.

In the case of RRIRWRPPRLPRPRPRPRVNPRP, the “shrunken log2 fold change” value was found to be 0.478.

Turning to RRIRPRPPRLPRPRPRPWLRPRP, the “shrunken log2 fold change” value came to 0.421.

With RRIRPRPPRLPRPRPRPVGGPRP, the “shrunken log2 fold change” value came to 0.408.

RRIRYRPPRLPRPRPRPTNPPRP: the “shrunken log2 fold change” value was -0.165.

RRIRSRPPRLPRPRPRPQADPRP: the “shrunken log2 fold change” value was -0.0788.

With RRIRQRPPRLPRPRPRPYSDPRP, the “shrunken log2 fold change” value is -0.028.

For the sequence RRIRRRPPRLPRPRPRPMACPRP, the “shrunken log2 fold change” value is -0.0812.

As for RRIRLRPPRLPRPRPRPNRRPRP, the “shrunken log2 fold change” value is 0.0365.

On to RRIRTRPPRLPRPRPRPYPAPRP, for which the “shrunken log2 fold change” value was -0.277.

For RRIRSRPPRLPRPRPRPMMWPRP, the “shrunken log2 fold change” value stood at 0.598.

Regarding RRIRRRPPRLPRPRPRPLLTPRP, the “shrunken log2 fold change” value turned out to be 0.399.

Regarding RRIRHRPPRLPRPRPRPCMSPRP, the “shrunken log2 fold change” value was 0.12.

Consider RRIRDRPPRLPRPRPRPGYIPRP, for which the “shrunken log2 fold change” value was -0.304.

As to RRIRWRPPRLPRPRPRPEPVPRP, the “shrunken log2 fold change” value was -0.0131.

For the sequence RRIRGRPPRLPRPRPRPSQSPRP, the “shrunken log2 fold change” value is 0.0755.

For RRIRQRPPRLPRPRPRPSSQPRP, the “shrunken log2 fold change” value was -0.395.

For the sequence RRIRERPPRLPRPRPRPIFDPRP, the “shrunken log2 fold change” value was -0.349.

RRIRKRPPRLPRPRPRPHFEPRP: the “shrunken log2 fold change” value stood at 0.101.

Turning to RRIRLRPPRLPRPRPRPRTMPRP, the “shrunken log2 fold change” value was -0.0102.

As for RRIRQRPPRLPRPRPRPIESPRP, the “shrunken log2 fold change” value was -0.181.

RRIRERPPRLPRPRPRPSRDPRP: the “shrunken log2 fold change” value is -0.12.

Take RRIRTRPPRLPRPRPRPVNSPRP: the “shrunken log2 fold change” value is -0.342.

As to RRIRCRPPRLPRPRPRPLAPPRP, the “shrunken log2 fold change” value turned out to be 0.268.

RRIRDRPPRLPRPRPRPGLKPRP: the “shrunken log2 fold change” value is -0.0696.

Consider RRIRLRPPRLPRPRPRPLQVPRP, for which the “shrunken log2 fold change” value is 0.109.

Regarding RRIRNRPPRLPRPRPRPIQEPRP, the “shrunken log2 fold change” value was -0.0116.

For RRIRTRPPRLPRPRPRPEYFPRP, the “shrunken log2 fold change” value was -0.186.

On to RRIRMRPPRLPRPRPRPPHHPRP, for which the “shrunken log2 fold change” value amounted to 0.527.

With RRIRQRPPRLPRPRPRPTHEPRP, the “shrunken log2 fold change” value came out at 0.881.

In the case of RRIRHRPPRLPRPRPRPSTMPRP, the “shrunken log2 fold change” value was -0.493.

On to RRIRMRPPRLPRPRPRPTMGPRP, for which the “shrunken log2 fold change” value worked out at 0.253.

For RRIRGRPPRLPRPRPRPKTGPRP, the “shrunken log2 fold change” value is 0.692.

With RRIRMRPPRLPRPRPRPIINPRP, the “shrunken log2 fold change” value is -0.0492.

On to RRIRRRPPRLPRPRPRPRTEPRP, for which the “shrunken log2 fold change” value worked out at 0.432.

In the case of RRIRHRPPRLPRPRPRPFAAPRP, the “shrunken log2 fold change” value is -0.0135.

RRIRCRPPRLPRPRPRPFLIPRP: the “shrunken log2 fold change” value is -0.36.

As for RRIRPRPPRLPRPRPRPMKFPRP, the “shrunken log2 fold change” value is -0.248.

Regarding RRIRPRPPRLPRPRPRPVFIPRP, the “shrunken log2 fold change” value was -0.235.

RRIRMRPPRLPRPRPRPGDAPRP: the “shrunken log2 fold change” value stood at 0.853.

As for RRIRERPPRLPRPRPRPQEHPRP, the “shrunken log2 fold change” value is -0.179.

For RRIRIRPPRLPRPRPRPGNCPRP, the “shrunken log2 fold change” value is -0.549.

As for RRIRERPPRLPRPRPRPMNDPRP, the “shrunken log2 fold change” value is -0.0199.

In the case of RRIRFRPPRLPRPRPRPYMIPRP, the “shrunken log2 fold change” value was -0.59.

With RRIRPRPPRLPRPRPRPITHPRP, the “shrunken log2 fold change” value is -0.117.

For the sequence RRIRQRPPRLPRPRPRPFMYPRP, the “shrunken log2 fold change” value is 0.000979.

Consider RRIRRRPPRLPRPRPRPLPVPRP, for which the “shrunken log2 fold change” value is 0.373.

For the sequence RRIRTRPPRLPRPRPRPHMFPRP, the “shrunken log2 fold change” value was -0.0142.

As for RRIRVRPPRLPRPRPRPPRQPRP, the “shrunken log2 fold change” value came to 0.583.

Regarding RRIRTRPPRLPRPRPRPKLHPRP, the “shrunken log2 fold change” value is -0.101.

Turning to RRIRNRPPRLPRPRPRPWSEPRP, the “shrunken log2 fold change” value was determined as 0.0632.

In the case of RRIRYRPPRLPRPRPRPSPRPRP, the “shrunken log2 fold change” value was 0.062.

Consider RRIRWRPPRLPRPRPRPSPYPRP, for which the “shrunken log2 fold change” value is -0.25.

As to RRIRCRPPRLPRPRPRPDEHPRP, the “shrunken log2 fold change” value is -0.417.

For the sequence RRIRPRPPRLPRPRPRPHAMPRP, the “shrunken log2 fold change” value was -0.0838.

Consider RRIRVRPPRLPRPRPRPFSLPRP, for which the “shrunken log2 fold change” value is -0.348.

On to RRIRPRPPRLPRPRPRPQDSPRP, for which the “shrunken log2 fold change” value is -0.196.

On to RRIRYRPPRLPRPRPRPKDMPRP, for which the “shrunken log2 fold change” value was found to be 0.0203.

Regarding RRIRARPPRLPRPRPRPEWKPRP, the “shrunken log2 fold change” value is 0.0235.

RRIRARPPRLPRPRPRPEGIPRP: the “shrunken log2 fold change” value amounted to 0.0659.

RRIRHRPPRLPRPRPRPMCIPRP: the “shrunken log2 fold change” value was -0.162.

As for RRIRPRPPRLPRPRPRPDQTPRP, the “shrunken log2 fold change” value was 0.0118.

With RRIRARPPRLPRPRPRPHYRPRP, the “shrunken log2 fold change” value turned out to be 0.0684.

RRIRLRPPRLPRPRPRPISYPRP: the “shrunken log2 fold change” value was -0.334.

For the sequence RRIRSRPPRLPRPRPRPAPWPRP, the “shrunken log2 fold change” value stood at 0.528.

Turning to RRIRNRPPRLPRPRPRPDYIPRP, the “shrunken log2 fold change” value is -0.104.

For RRIRYRPPRLPRPRPRPLPTPRP, the “shrunken log2 fold change” value is -0.0873.

Take RRIRVRPPRLPRPRPRPKWLPRP: the “shrunken log2 fold change” value is 0.0936.

As for RRIRWRPPRLPRPRPRPTRPPRP, the “shrunken log2 fold change” value was determined as 0.855.

Turning to RRIRSRPPRLPRPRPRPSYNPRP, the “shrunken log2 fold change” value was -0.759.

Consider RRIRWRPPRLPRPRPRPLVGPRP, for which the “shrunken log2 fold change” value is 0.282.

Turning to RRIRCRPPRLPRPRPRPNGEPRP, the “shrunken log2 fold change” value was -0.0109.

On to RRIRSRPPRLPRPRPRPSAYPRP, for which the “shrunken log2 fold change” value is -0.0159.

Consider RRIRVRPPRLPRPRPRPLYFPRP, for which the “shrunken log2 fold change” value was -0.53.

For RRIRWRPPRLPRPRPRPITIPRP, the “shrunken log2 fold change” value was -0.162.

On to RRIRRRPPRLPRPRPRPEWLPRP, for which the “shrunken log2 fold change” value was determined as 0.794.

As to RRIRLRPPRLPRPRPRPFPGPRP, the “shrunken log2 fold change” value amounted to 0.143.

Consider RRIRHRPPRLPRPRPRPAMHPRP, for which the “shrunken log2 fold change” value was 0.0521.

With RRIRGRPPRLPRPRPRPQRSPRP, the “shrunken log2 fold change” value was found to be 0.16.

Turning to RRIRCRPPRLPRPRPRPRNSPRP, the “shrunken log2 fold change” value is -0.113.

Regarding RRIRERPPRLPRPRPRPIIWPRP, the “shrunken log2 fold change” value was -0.204.

Take RRIRFRPPRLPRPRPRPVTPPRP: the “shrunken log2 fold change” value was determined as 0.241.

In the case of RRIRGRPPRLPRPRPRPIWSPRP, the “shrunken log2 fold change” value came out at 0.15.

Regarding RRIRDRPPRLPRPRPRPRWMPRP, the “shrunken log2 fold change” value was -0.176.

As to RRIRWRPPRLPRPRPRPWITPRP, the “shrunken log2 fold change” value is -0.0174.

With RRIRQRPPRLPRPRPRPRGMPRP, the “shrunken log2 fold change” value was 0.143.

On to RRIRMRPPRLPRPRPRPGGVPRP, for which the “shrunken log2 fold change” value is 0.952.

As to RRIRGRPPRLPRPRPRPQIKPRP, the “shrunken log2 fold change” value was 0.324.

For RRIRRRPPRLPRPRPRPKDEPRP, the “shrunken log2 fold change” value is 0.189.

Take RRIRCRPPRLPRPRPRPLCEPRP: the “shrunken log2 fold change” value is -0.0345.

On to RRIRFRPPRLPRPRPRPVDLPRP, for which the “shrunken log2 fold change” value is -0.102.

For RRIRKRPPRLPRPRPRPMRNPRP, the “shrunken log2 fold change” value turned out to be 1.32.

For RRIRCRPPRLPRPRPRPFMFPRP, the “shrunken log2 fold change” value is -0.421.

RRIRFRPPRLPRPRPRPYHYPRP: the “shrunken log2 fold change” value was -0.521.

RRIRNRPPRLPRPRPRPDHRPRP: the “shrunken log2 fold change” value is -0.0124.
